Values belong to the binder of their own block, whether it stands above or below them.
Key:
EGFR expressed on cells [1] = target: T1, EGFR expressed on cells (UniProt P00533 25-1210, limits assumed); test: flow cytometry on 293T-EGFR cells; unit taken from the axis 'Conc.(nM)'
T1 construct: whole, on cells; also called HEK293T-EGFR cell line; EGFR over-expressing cells

[2] = target: mesothelin (MSLN) expressed on cells (UniProt Q13421); test: flow cytometry on 293T-MSLN-Full cells; unit taken from the axis 'Conc.(nM)'
BCMA expressed on cells = target: T2, BCMA expressed on cells (UniProt Q02223 1-184, limits assumed); test: flow cytometry on CHOK1-BCMA cells; unit taken from the axis 'Concentration (nM)'
T2 construct: whole, on cells; also called CHOK1-BCMA cell line; BCMA over-expression cell line
T2 sequence (looked up): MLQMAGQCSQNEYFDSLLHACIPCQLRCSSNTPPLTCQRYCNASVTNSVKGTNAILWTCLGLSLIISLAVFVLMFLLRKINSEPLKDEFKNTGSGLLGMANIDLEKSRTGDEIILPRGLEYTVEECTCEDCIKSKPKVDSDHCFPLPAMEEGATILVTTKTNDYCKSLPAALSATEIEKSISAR

BCMA-His antigen = target: T3, BCMA-His antigen (UniProt Q02223 1-54); test: SPR as in Example 2, BCMA-His antigen
T3 construct: also called BMCA antigen
T3 sequence (looked up): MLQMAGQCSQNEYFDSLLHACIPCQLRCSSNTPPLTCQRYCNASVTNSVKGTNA

EGFR His antigen = EGFR His antigen (UniProt P00533 25-645); test: SPR as in Example 2, EGFR His antigen
EGFR expressed on cells [3] = target: T1, EGFR expressed on cells; test: flow cytometry on HEK293T-EGFR cells (cell line from paragraph 185); unit taken from the axis 'Concentration (nM)'

Chain of mesothelin (MSLN) expressed on cells (Q13421 other isoform, or with tags, fused parts or gaps limits assumed): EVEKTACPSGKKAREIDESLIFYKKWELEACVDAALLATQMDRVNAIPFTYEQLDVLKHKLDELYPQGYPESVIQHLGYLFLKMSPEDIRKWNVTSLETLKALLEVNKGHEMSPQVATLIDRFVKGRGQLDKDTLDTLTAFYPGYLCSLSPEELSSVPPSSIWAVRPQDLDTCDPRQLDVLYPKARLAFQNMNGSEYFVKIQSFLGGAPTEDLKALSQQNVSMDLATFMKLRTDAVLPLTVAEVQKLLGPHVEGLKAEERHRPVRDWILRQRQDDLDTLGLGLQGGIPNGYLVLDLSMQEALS

EC50 (EGFR expressed on cells [1]): 28.6 nM
EC50 [2]: 35.6 nM
B1: TCP021-P (bispecific antibody)
chain: QLQLGASGGGLVQPGGSLRLSCALSGFTLRELDEFAIGWFRQAPGKEREGVSCISGTGGITHYADSVKGRFTISRDIAKTTVYLQMNSLNSEDTAVYYCAADERCTDRLIRPPTYWGQGTQVTVSSGGGGSGGGGSGGGGSQVQLVESGGGLVQPGGSLNLSCAASGFDFSSVTMSWHRQSPGKERETVAVISNIGNRNVGSSVRGRFTISRDNKKQTVHLQMDNLKPEDTGIYRCKAWGLDLWGPGTQVTVSSGGGGSEQKLISEEDLGGGGSHHHHHH
notes: also called EGFR-TCP; anti-M-ICAP VHH (M2339) - 3xGGGGS linker - anti-EGFR VHH (E454(VHH)) - Myc and HIS

EC50 (BCMA expressed on cells): 1.68 nM
Kd (BCMA-His antigen): 0.125 nM
koff (BCMA-His antigen): 0.000365 s⁻¹
kon (BCMA-His antigen): 2.92e+06 M⁻¹ s⁻¹
B2: B029(VHH), hFc fusion (Fc fusion)
chain: QVQLVESGGGLVQPGGSLRLSCAASGSITSIYAIGWYRQAPGKLRELVAAITTSGNTFYRDSVKGRFTISRDNAKNTVSLQMNSLKSEDTAVYDCNGAPWGDHAPLVVSWDQGTQVTVSS
notes: not shown: human Fc

Kd (EGFR His antigen): 1.27 nM
koff (EGFR His antigen): 2.48e-05 s⁻¹
kon (EGFR His antigen): 19500 M⁻¹ s⁻¹
EC50 (EGFR expressed on cells [3]): 6.51 nM
B3: E454(VHH), hFc fusion (Fc fusion)
chain: QVQLVESGGGLVQPGGSLNLSCAASGFDFSSVTMSWHRQSPGKERETVAVISNIGNRNVGSSVRGRFTISRDNKKQTVHLQMDNLKPEDTGIYRCKAWGLDLWGPGTQVTVSS
notes: also called anti-EGFR VHH (E454(VHH)); not shown: human Fc
